The supplement of paper PMC12042874
± gives the uncertainty stated by the source.

Assay: amyloid nucleation score (Sup35N fusion, yeast selection) (log enrichment); library NNK2; higher = more nucleation; inactive = no reads after selection
How it was run: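 Sup35N fusions to peptides of 20 random codons were expressed in psi-negative yeast, induced 24 hours with 100 μM copper sulfate, and grown 7 days at 30°C on medium lacking adenine and uracil. Input and output plasmid inserts were sequenced by Illumina. The nucleation score is the DiMSum log enrichment of output over input reads, centred on the mode score of non-aggregating sequences. Sequences with under 100 input reads were excluded.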
For ICISGAFNVTAHLKLAQASL, the amyloid nucleation score was 0.295 ± 1. For RLKCSYTGSALLGRSLGNPE, the amyloid nucleation score was 0.29 ± 0.54. With FDMVSVVVYMRAVTTKCGPS the amyloid nucleation score was 1.73 ± 0.24. YSFYAGFVNYIKVWNNRG showed an amyloid nucleation score of 4.23 ± 0.05. In the case of TVLCTRRLAWRYRLHFFFQ, the amyloid nucleation score is reported as 3.16 ± 0.073. Work on MSTIITALEFNG yielded an amyloid nucleation score of 0.188 ± 0.62. NFIDRQLSILYMMFLITEC gave an amyloid nucleation score of -0.774 ± 1.1. Work on RWTLWFEGRLERLVAIIS yielded an amyloid nucleation score of -0.133 ± 1. NGDMWKHIKRRQVNNRG gave an amyloid nucleation score of 0.881 ± 0.67. Substance DILMLNRSVGDIREAISVNG has an amyloid nucleation score of 0.48 ± 0.51. Substance LYVTQTS has an amyloid nucleation score of -0.053 ± 0.35. FKNLAFTFNLQCL showed an amyloid nucleation score of 6.472 ± 0.051. DRAGLATLNSLELGDDGFLG gave an amyloid nucleation score of -1 ± 0.78. With GVTFSSMLRPFSAIAKRLVV the amyloid nucleation score was 0.733 ± 0.56. With MLNNRLNPLFARESGELLGA the amyloid nucleation score was 0.871 ± 0.15. For WVSCVVCFWIDHESAALESV, the amyloid nucleation score was 8.784 ± 0.036. FYWAKPSHWAPGFINGQDVL showed an amyloid nucleation score of -1.19 ± 0.54. Work on SCSRWWFWRNATLEVLSKVR yielded an amyloid nucleation score of 0.697 ± 0.81. For MCMLDRRYQTVMSKVWPNLT, the amyloid nucleation score was 0.224 ± 0.33. In the case of IMVRVIAFNVL, the amyloid nucleation score is reported as 6.864 ± 0.041. Substance LIGEVAYFICHFSKVVARLF has an amyloid nucleation score of 2.06 ± 0.075. With RIIYEAC the amyloid nucleation score was -0.865 ± 0.23. LFSSQLTATVRVPMSRNGLW gave an amyloid nucleation score of 7.088 ± 0.031. Substance TGDCRT has an amyloid nucleation score of 0.233 ± 0.2. For SSDYGIQPCFTTTSLLLLFN, the amyloid nucleation score was -0.914 ± 0.48. Substance TWESSV has an amyloid nucleation score of 0.613 ± 0.2. With EYFFYLLSSIMHIE the amyloid nucleation score was 2.45 ± 0.1. Substance RSSSRASALTRYLSELGKKS has an amyloid nucleation score of 0.694 ± 0.39. Substance QMFVRCSQ has an amyloid nucleation score of 0.705 ± 0.66. With GWSYNLSETLKQSVESVLTS the amyloid nucleation score was 1.42 ± 0.44. For VSRMLSVMSMTTRMFLPYTS, the amyloid nucleation score was 0.152 ± 0.61. Work on MLWVYWLGCHVRSYNLGYLR yielded an amyloid nucleation score of -0.255 ± 0.63. Substance GVSWTFFGEYFQPCSSMKVN has an amyloid nucleation score of -0.538 ± 0.46. In the case of IYACSCLIKVDFYEAIPIWV, the amyloid nucleation score is reported as “inactive”. AYRWMDSSSTRFGTGLG showed an amyloid nucleation score of 0.895 ± 0.81. Work on LCFMF yielded an amyloid nucleation score of 0.4 ± 0.51. In the case of LLSQKRGCHVSGHIGVEA, the amyloid nucleation score is reported as -0.218 ± 0.31. With FLFRKYWLTNRWLFMFKEFA the amyloid nucleation score was 0.196 ± 0.65. LYRRIRCFIYPFCKGVRCLC showed an amyloid nucleation score of -1.77 ± 0.62. With DAKRVQIYF the amyloid nucleation score was 1.02 ± 0.68. GEGQNEVATHLYCQLAILPV showed an amyloid nucleation score of 0.28 ± 0.46. With VSARDHLGKRNRHWINC the amyloid nucleation score was -0.626 ± 0.55. SYADRVILLVSCVVPWAPLR showed an amyloid nucleation score of 3.31 ± 0.15. HVLSLGAGWKYVGVDECKE showed an amyloid nucleation score of 0.317 ± 0.31. With WFLGMGKFHRRAWAARLFMV the amyloid nucleation score was 2.45 ± 0.12. Substance LNGGKLWNHRDLWDRTGQVY has an amyloid nucleation score of -0.266 ± 1. For TFGLA, the amyloid nucleation score was 1.06 ± 0.4. For LSLLEGKVWLRWY, the amyloid nucleation score was 1.2 ± 0.61. With INSPSYDNILMSTSSANMKR the amyloid nucleation score was “inactive”. Work on MLWWLYLTDYSISGYNVGKM yielded an amyloid nucleation score of 0.433 ± 0.74. LNLMVTW gave an amyloid nucleation score of -0.926 ± 0.78. Work on RVSHEHVYLSNFVTPWLCYY yielded an amyloid nucleation score of 5.913 ± 0.049. For GGALGDFGTHEFNLNAPYSQ, the amyloid nucleation score was “inactive”. In the case of VSTGAWCYGLWSVLQGWERG, the amyloid nucleation score is reported as 5.02 ± 0.082. In the case of QDSFRGLGYFWGPQHETVVM, the amyloid nucleation score is reported as -1.23 ± 0.48. Work on FVHKSCSAALTTLGTVAD yielded an amyloid nucleation score of 4.333 ± 0.042. Substance TWTHCIGSLIR has an amyloid nucleation score of -0.855 ± 0.76. For LINVMLS, the amyloid nucleation score was “inactive”. For TNSTPPVKLYWIMKLLDRFR, the amyloid nucleation score was “inactive”. With ICTALGGWWSKEVMSADMFL the amyloid nucleation score was 0.811 ± 0.67. In the case of VVVNTYYSGIFMQVFLFL, the amyloid nucleation score is reported as 6.76 ± 0.037. In the case of LHLEMTEW, the amyloid nucleation score is reported as “inactive”. YFRISTWRFRTRHLGPCERG gave an amyloid nucleation score of 5.708 ± 0.054. NAIYLVRMDYS showed an amyloid nucleation score of 0.138 ± 0.23. Work on CLMDCGLYFTGSNLRAMCTW yielded an amyloid nucleation score of -0.223 ± 0.49. HNYIWARTRSRGRPMYSVPA gave an amyloid nucleation score of 0.798 ± 0.33. In the case of RSGAVQWRQRMGCMPSVCDR, the amyloid nucleation score is reported as 1.46 ± 0.26. VSITHQLTYW showed an amyloid nucleation score of 1.33 ± 0.53. Substance FEVLIFVDCWFVVMGRETLN has an amyloid nucleation score of 2.68 ± 0.15. Substance KVLMLQHPIGYLLNILTMS has an amyloid nucleation score of -0.017 ± 0.41.
